Measured values reported in patent publication US20240368223A1 (KAGOSHIMA UNIVERSITY, published 2024).
Bridges are numbered along the chain shown (N, C = ends). Where no end group is shown, it is not given here. [ ]: non-standard residue; d: D form. hCys = N[C@@H](CCS)C(=O)O

B1: cyclic homocysteine peptide G(HC)DCAYHRGELVWCT(HC)H-NH2 (peptide)
peptide: G[hCys]DCAYHRGELVWCT[hCys]H-NH2
modifications: disulfide 4-14, 2-16; N-terminus assumed
SMILES: CC(C)C[C@@H]1NC(=O)[C@H](CCC(=O)O)NC(=O)CNC(=O)[C@H](CCCNC(=N)N)NC(=O)[C@H](Cc2c[nH]cn2)NC(=O)[C@H](Cc2ccc(O)cc2)NC(=O)[C@H](C)NC(=O)[C@@H]2CSSC[C@H](NC(=O)[C@H](Cc3c[nH]c4ccccc34)NC(=O)[C@H](C(C)C)NC1=O)C(=O)N[C@@H]([C@@H](C)O)C(=O)N[C@H](C(=O)N[C@@H](Cc1c[nH]cn1)C(N)=O)CCSSCC[C@H](NC(=O)CN)C(=O)N[C@@H](CC(=O)O)C(=O)N2
notes: Peptide put into the crystals with Fc; Residue numbers in the text (Arg8) count on the 17-residue peptide
B2: fluorescent (5/6 TAMRA-PEG4) IgG-binding peptide modified with DSS (peptide)
peptide: GPDCAYHXGELVWCTFH
modifications: X at position 8 (lysine in Type I(R8K)) modified with DSS; N-terminal amino-PEG4 modified with 5/6 TAMURA succinimidyl ester (fluorescent dye); C-terminal amide; intramolecular S-S bond
notes: also called DSS-crosslinked peptide
B3: fluorescent (5/6 TAMRA-PEG4) IgG-binding peptide modified with DSG (peptide)
peptide: GPDCAYHXGELVWCTFH
modifications: X at position 8 (lysine in Type I(R8K)) modified with DSG; N-terminal amino-PEG4 modified with 5/6 TAMURA succinimidyl ester (fluorescent dye); C-terminal amide; intramolecular S-S bond
notes: also called DSG-cross-linked peptide

Columns and labels:
human IgG Fc = biological target: T1, human IgG Fc (human, UniProt P01857-1 108-330 = IgG part); assay: X-ray crystal structure of the Fc/peptide complex
T1 construct: domain: Fc; also called human IgG1 Fc
Experimental: 70 μL of the crystallizing agent was dispensed thereto as a reservoir solution. The plate was hermetically sealed using PowerSeal CRISTAL VIEW (manufactured by Greiner Bio-One Co., Ltd.) and then left standing for approximately 2 weeks in a thermostat bath of 20° C. to obtain crystals.
The assay was carried out at an X-ray wavelength of 1 angstrom and an angle of oscillation of 1°/frame. Next, the diffraction intensity data was processed at a resolution of 3.0 angstroms using a diffraction intensity data processing program HKL2000 (manufactured by HKL Research Inc.).
A Fc moiety model registered as PDB accession code: 1DN2 in the Protein Data Bank (PDB, URL: http://www.rcsb.org/pdb/) was utilized as a search model for the molecular replacement method.

bovine serum albumin = biological target: T2, bovine serum albumin (bovine, UniProt P02769 25-607); assay: size exclusion chromatography with fluorescence detection at 565 nm
T2 construct: also called BSA
T2 sequence (P02769 25-607 limits assumed): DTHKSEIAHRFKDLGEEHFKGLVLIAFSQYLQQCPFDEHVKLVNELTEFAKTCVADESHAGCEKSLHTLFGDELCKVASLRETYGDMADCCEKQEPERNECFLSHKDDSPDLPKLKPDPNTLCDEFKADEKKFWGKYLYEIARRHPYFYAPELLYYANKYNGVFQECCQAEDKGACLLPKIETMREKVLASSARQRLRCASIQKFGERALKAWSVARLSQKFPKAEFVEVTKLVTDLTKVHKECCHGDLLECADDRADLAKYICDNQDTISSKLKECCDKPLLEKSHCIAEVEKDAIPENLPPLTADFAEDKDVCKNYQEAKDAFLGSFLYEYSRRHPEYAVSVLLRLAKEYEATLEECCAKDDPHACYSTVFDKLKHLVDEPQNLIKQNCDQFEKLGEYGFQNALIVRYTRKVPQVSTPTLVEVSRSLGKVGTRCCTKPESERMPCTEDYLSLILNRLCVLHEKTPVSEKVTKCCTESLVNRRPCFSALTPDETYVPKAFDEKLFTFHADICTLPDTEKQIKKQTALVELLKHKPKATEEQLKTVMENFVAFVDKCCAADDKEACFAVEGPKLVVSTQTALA
Experimental: The reaction was terminated by the addition of 10 μL of 1 M Tris-HCl (pH=7.0). Then, size exclusion chromatography was performed using Superdex™ 200 10/30GL 1.0 cm in diameter×30 cm (GE Healthcare Japan Corp.); flow rate: 0.3 ml/min; running buffer: PBS pH 7.4. Assay was conducted using a fluorescence detector RF-10A (Shimadzu Corp.) (excitation light: 541 nm, fluorescence: 565 nm).

| Binder | binding result (human IgG Fc) | binding result (bovine serum albumin) |
| --- | --- | --- |
| B1 | binds | – |
| B2 | – | no binding |
| B3 | – | no binding |
